# Assay: yeast display, Sf9 membrane polyspecificity reagent, FACS + sequencing; frameworks hold sequencing errors
# Summary of the method: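 A synthetic nanobody library was expressed on Saccharomyces cerevisiae BJ5465 by galactose induction for 36–48 hours. The library was stained for 1 hour at 4 °C with 10% biotinylated, detergent-solubilized Sf9 membrane reagent and enriched with streptavidin microbeads before FACS. Low and high (top ~1%) gates were set on anti-HA fluorescence for expression and streptavidin fluorescence for reagent binding, and each polyreactivity label reflects the gate of origin.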
row,Sequence,polyreactivity (PSR sort gate)
1,QVQLVESGGGLVQAGGSLRLSCAASGRIFVFNAMGWYRQAPGKEREFVAVISTGGGSTYYADSVKGRFTISRDNAKNTVYLQMNSLKPEDTAVYYCAAEWRVYYATYGYWGQGTQVTVSS,high polyreactivity
2,QVQLVESGGGLVQAGGSLRLSCAASGRIFVGYAMGWYRQAPGKEREFVAAITFRGGTTYYADSVKGRFTITRDYAKNTVYLQMNSLKPEDTAVYYCAVPLYLYSVEYGYWGQGNQVTVSS,low polyreactivity
3,QVQLVESGGGLVQAGGSLRLSCAASGRIFVGYAMGWYRQAPGKETELVAAISRDGDNTFYADSVKGRFTISRDNAKNTVYLQMNSLKPEDTAVYYCAVDYWVWYGSAYAYDYYWGQGTQVTVSS,low polyreactivity
4,QVQLVESGGGLVQAGGSLRLSCAASGRIFVGYPMGWYRQAPGKERELVAAITSGGSTYYADSVKGRFTISRDNAKNTVSFQMNSLKPEDTAVYYCNAAYQFDSYHLGGYRYEYWGQGTQVTVSS,low polyreactivity
5,QVQLVESGGGLVQAGGSLRLSCAASGRIFVGYYAMGWYRQAPGKERELVAAITIGGRTYYADSVKGRFTISRDNAKNTVYLQMNSLKPEDTAVYYCAASKYTRAYQEYGYWGQGTQVTVSS,high polyreactivity
6,QVQLVESGGGLVQAGGSLRLSCAASGRIFVHYVMGWYRQAPGKERELVAAITVSGGGTYYADSVKGRFTISRDNAKNTVYFQMNSLTPEDTAVYYCNAVPHPYDWGQGTQLTVSS,low polyreactivity
7,QVQLVESGGGLVQAGGSLRLSCAASGRIFVINAMGWYRQAPGKEREFVAGITSSGNTNYADSVKGRFTISRDNAKNTVYLQMNSLKPEDTAVYYCNAQVYLTWLTYWLYYPPNDYWGQGTQVTVSS,low polyreactivity
8,QVQLVESGGGLVQAGGSLRLSCAASGRIFVINAMGWYRQAPGKERELVAAISQSGGSTYYADSVKGRFTISRDNAKNNVYLQMNSLKPEDTAVYYCNALSNVPYDYWGQGTQVTVSS,low polyreactivity
9,QVQLVESGGGLVQAGGSLRLSCAASGRIFVINAMGWYRQAPGKERELVAAISRRGANTYYADSVKGRFTISRDNAKNTVYLQMNSLKPEDTAVYYCNKVTVYRFRGDSWGQGTQVTVSS,high polyreactivity
10,QVQLVESGGGLVQAGGSLRLSCAASGRIFVINAMGWYRQAPGKERELVADITWSGGSTYADSVKGRFTISRDNAKNTVYLQMNSLKPEETAVYYCAKQRGGQPRSSTYYYWGQGTQVTVSS,high polyreactivity
11,QVQLVESGGGLVQAGGSLRLSCAASGRIFVKYAMGWYRQAPGKERELVARITRGGRTNYADSVKGRFTISRDNAKNTVYLQMNSLKPEDTAVYYCNAGWGMRLSWLGNYWGQGTQVTVSS,high polyreactivity
12,QVQLVESGGGLVQAGGSLRLSCAASGRIFVKYSMGWYRQAPGKERELVAAISKSGGSTYYADSVKGRFTISRDNAKNTVYLQMNSLKPEDTAVYYCATRSRDQYSVSYRLDYWGQGTQVTVSS,low polyreactivity
13,QVQLVESGGGLVQAGGSLRLSCAASGRIFVLYAMGWYRQAPGKERELVAAITSDGSSTYYADSVKGRFTISRDNAKNTVYLQMISLKPEDNAVYYCNKVQGWARYRSGKDMGYWGQGTQVTVSS,low polyreactivity
14,QVQLVESGGGLVQAGGSLRLSCAASGRIFVLYAMGWYRQAPGKERELVADITFDGGSTYYADSVKGRFTISRDNAKNTVYLQMNSLKPEDTAVSFCAARYRWSRKRYNDYDYWGQGTQVSVSS,high polyreactivity
15,QVQLVESGGGLVQAGGSLRLSCAASGRIFVPNAMGWYRPAPGKERELVAAISLRGGSTYYADSVKGRFTISRDNAKYTVYLQMNSLKPEDTAVYYCGWAYRYPHDYWGQGTQVTVSS,high polyreactivity
16,QVQLVESGGGLVQAGGSLRLSCAASGRIFVPNAMGWYRPPPGKERELVAAINWGGGSTYYADSVKGRFTISRDNAKNTVYLQMNSLKPEDTAVYYCAADHPYTIGVLPNQQFDYWGQGTQVTVSS,low polyreactivity
17,QVQLVESGGGLVQAGGSLRLSCAASGRIFVPNAMGWYRQAPGKERELVAAISSSGGSTYYADSVKGRFTISRDNAKNTVYLQMNSLKPEDTAVYDCNKVQSTANDYWGQGTQVTVSS,low polyreactivity
18,QVQLVESGGGLVQAGGSLRLSCAASGRIFVPNPMGWYRQAPGKDRELVAAITNGGRTKYADSVKGRFTISRDNAKNTVYLQMNSLKPEDTAVYYCAADLYRWFYYWGQGTQVTVSS,high polyreactivity
19,QVQLVESGGGLVQAGGSLRLSCAASGRIFVPNTMGWYRQAPGKERELVAAINTGGRTYYADSVKGRFTISRDNAKNTVYLQMNSLKPEDTAVYYCAVFSLKLGYIYDYWGQGTQVTVSS,high polyreactivity
20,QVQLVESGGGLVQAGGSLRLSCAASGRIFVPYVMGWYRQAPGKERELVASISDSDTSTYYADSVKGRFTISRDNATNTVYLQMNSLKPEDTAVYYCNVDYWGQGTQVTVSS,low polyreactivity
21,QVQLVESGGGLVQAGGSLRLSCAASGRIFVTNAMGWYRQAPGKERELVAAITRGGSTNYADSVKGRFTISRDNAKNTVYLQMNSLKPEDTAVYYCAAKRRYYGPWSRIGYDYWGHGTQVTVSS,low polyreactivity
22,QVQLVESGGGLVQAGGSLRLSCAASGRIFVTNDMGWYRQAPGKERELVAAISLSSGSTYYADSVKGRFTISRDNAKNTVYLQMNSLKPEDTAVYYCAADIFPFGYFLFRHGYWGQGTQVTVSS,low polyreactivity

row,Sequence,polyreactivity (PSR sort gate)
1,QVQLVESGGGLVQAGGSLRLSCAASGRIFVTYAMGLYRQAPGKERELVAVISWSGGSTYYADSVKGRFTISRDNAKNTVYLQMNSLKPEDTAVYYCARGLRKVRFDYWGQGTQVTVSS,low polyreactivity
2,QVQLVESGGGLVQAGGSLRLSCAASGRIFVTYAMGWYRQAPGKERELVAAITSRGGRTYDADSVKGRFTISRDNAKNTVYLQMNSLKPEDTAVYYCAAYPGPGARYYYWGQGTQVTVSS,high polyreactivity
3,QVQLVESGGGLVQAGGSLRLSCAASGRIFVTYAMGWYRQAPGKERELVAVISWSGGSTYYADSVKGRITISRDNAKNTVYLQINSLKPEDTAVYYCARGLRKVRFDYWGQGTQVTVSS,low polyreactivity
4,QVQLVESGGGLVQAGGSLRLSCAASGRIFVVNAMGWYRQAPGKERELVATITRSGGITYYADSVKGRFTISRDNAKNTVYLQMNSLKPEDTAVYYCNADVLFYTYYTRGRFDFDYWGQGTQVTVAS,low polyreactivity
5,QVQLVESGGGLVQAGGSLRLSCAASGRIFVVNDMGWYRQAPGKERELVAAINSGGRTNYADSVKGRFTISRDNAKNTVYLQMNSLKPEDTAVYYCNAKRTGPWFLHVPVYYWGQGTQVTVSS,low polyreactivity
6,QVQLVESGGGLVQAGGSLRLSCAASGRIFVWYAMGWYRQATGKERELVAAITRGGSTNYADSVKGRFTISRDNAKNTVYLQMNSLKPEDTAVYYCAARSPYRTRNDYWGQGTQVTVSS,low polyreactivity
7,QVQLVESGGGLVQAGGSLRLSCAASGRIFVYNAKGWNRQAPGKERQLVAAISYNGGGTYYADSVKGRFTISRDNAKNTVYLQMNSLKPEDTAVYYCAARYRSWTGKYEYWGQGTQVTVSS,high polyreactivity
8,QVQLVESGGGLVQAGGSLRLSCAASGRIFVYNAKGWYRQAAGKERELVAAISYTGGTTYYADSVKGRFTISRDNAKKTVYLQMKSLKPEDTAVFFCAALWWWNRQVRYEYWGQGTQVTVSS,low polyreactivity
9,QVQLVESGGGLVQAGGSLRLSCAASGRIFVYNAMGWSRQAPGKVRELVASITSSGGSTSYADSVKGRFTISRDNAKNTVYLQMNSLKPEDTAVYSCAADVQPDTRSTPEMDYWGQGTQVTVSS,low polyreactivity
10,QVQLVESGGGLVQAGGSLRLSCAASGRIFVYNAMGWYRQAPGKERELVAAINSGDSTYYADSVKGRFTISRDNAKNTVYLQMNSLKPEDTAVYYCAADIHYYPGYLAYDYWGQGTQVTVSS,low polyreactivity
11,QVQLVESGGGLVQAGGSLRLSCAASGRIFVYNVMGWSRQSPGKERELVAAISWGTGSTYADSVKGRFTISRDNAKNTVYLQMNSLKPEDTAVYYCAADWLSTKNDYWGQGTQVTVSS,low polyreactivity
12,QVQLVESGGGLVQAGGSLRLSCAASGRIFVYYAMGWYRQAPGKERELVAAITSRDDSTYYADSVKGRFTISRDNAKNTVYLQMNSLKPEDTAVYYCNVVPKSRDWQSYGSWGQGTQVTVSS,high polyreactivity
13,QVQLVESGGGLVQAGGSLRLSCAASGRIFVYYAMGWYRQAPGKERELVATISSGGSTYYADSVKGRFTISRDNAKNTVYLQMNSLKPEDTAVYYCAADNVIRYLAYYYKGDYWGQGTQVTVSS,low polyreactivity
14,QVQLVESGGGLVQAGGSLRLSCAASGRIFVYYAMGWYRQAPGNERELVAAITSGGTTYYADSVKGRFTISRDNAKNTVYLQMNSLKPEDTAVYYCAKVGRSDLGYDYWGQGTQVTVSS,low polyreactivity
15,QVQLVESGGGLVQAGGSLRLSCAASGRIFVYYTMGWYRPAPGKEREFVAAITRSGGRTYYADSVKGRFTISRDNAKNTVYLQMNSLKPEDTAVYYCNRDPTYLAYYIKYDSWGQGTQVTVSS,high polyreactivity
16,QVQLVESGGGLVQAGGSLRLSCAASGRIFWANAMGWYRQAPGKERELVAAISKSGDSTYYADSVKGRFTISRDTAKNTVYLEMSWLKPEDTAVYSCAADEYASRFSFKYDYWGQGTQVTVSS,high polyreactivity
17,QVQLVESGGGLVQAGGSLRLSCAASGRIFWDNAMGWYRQAPGKERELVAAISDSVVITYYADSVKGRFTISRDNAKNTVYLQMNSLKPEDTAVYYCAADKRGTVYLSSFWMDYWGQGTQVTVSW,low polyreactivity
18,QVQLVESGGGLVQAGGSLRLSCAASGRIFWDNAMGWYRQAPGKERELVADITWRSDSTYYADSVKGRFTISRDNAKNTVYLQMNSLKPEATAVYYCAKPINIYPYDYWGQGTQVTVSS,low polyreactivity
19,QVQLVESGGGLVQAGGSLRLSCAASGRIFWDYALGWYRQAPGKERELVAVITFSGDSTYYADSVKGRFTISRDNAKNTVYVQMNSLKPEDTAVYYCAAARAIRQFWYVATFEYWGQGTQVTVSS,low polyreactivity
20,QVQLVESGGGLVQAGGSLRLSCAASGRIFWFNSMGWYRQAPGKERELVAAIDSVGSTYYADSVKGRFTISRDNAKNTVYLQMNSLKPEDTAVYYCAKSTRPVSGVPDGPLYEYWGQGTQVTVSS,low polyreactivity
21,QVQLVESGGGLVQAGGSLRLSCAASGRIFWGNGMGWYRQAPGKEREFVAAISKSGGSTYYADSVKGRFTISRDNAKNTVYLQMNSLKPEDTAVYYCAARAPYSYSGYGYWGQGTQVTVSS,high polyreactivity
